Test results reported in paper PMC8782169, “The distinct RNA-interaction modes of a small ZnF domain underlay TUT4(7) diverse action in miRNA regulation”.

Tests used:
Conditions in all cases: protein: recombinant; tags: N-terminal His6 removed by TEV
hTUT4 CCHC-ZnF2 [1] = molecular target: T1, hTUT4 CCHC-ZnF2 (Homo sapiens, UniProt Q5TAX3 1293-1321); experiment: BLI; NMR: 10 mM Tris-HCl pH 7.4, 100 mM NaCl, 0.5 mM TCEP, 10 uM ZnCl2, 25 C, 50 uM protein; BLI: streptavidin sensors, 1-8 uM protein, buffer not in material
T1 chain: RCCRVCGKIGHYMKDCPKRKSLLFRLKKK

hTUT4 CCHC-ZnF2-3 [2] = molecular target: T2, hTUT4 CCHC-ZnF2-3 (Homo sapiens, UniProt Q5TAX3 1293-1382); experiment: BLI; affinity very similar to ZnF2; ~2-fold slower association and slightly longer lifetime (value in figure only); NMR: 10 mM Tris-HCl pH 7.4, 100 mM NaCl, 0.5 mM TCEP, 10 uM ZnCl2, 25 C, 50 uM protein; BLI: streptavidin sensors, 1-8 uM protein, buffer not in material
T2 sequence: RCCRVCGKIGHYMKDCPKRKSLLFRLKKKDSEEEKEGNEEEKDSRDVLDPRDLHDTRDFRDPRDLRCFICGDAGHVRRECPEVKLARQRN

hTUT4 CCHC-ZnF2 [3] = molecular target: T1, hTUT4 CCHC-ZnF2; experiment: NMR titration (15N HSQC CSP); 10 uM ZnCl2; protein:RNA 1:10; NMR: 10 mM Tris-HCl pH 7.4, 100 mM NaCl, 0.5 mM TCEP, 10 uM ZnCl2, 25 C, 50 uM protein; BLI: streptavidin sensors, 1-8 uM protein, buffer not in material
hTUT4 CCHC-ZnF2-3 [4] = molecular target: T2, hTUT4 CCHC-ZnF2-3; experiment: BLI; affinity very similar to ZnF2 (value in figure only); NMR: 10 mM Tris-HCl pH 7.4, 100 mM NaCl, 0.5 mM TCEP, 10 uM ZnCl2, 25 C, 50 uM protein; BLI: streptavidin sensors, 1-8 uM protein, buffer not in material
hTUT4 CCHC-ZnF2 [5] = molecular target: T1, hTUT4 CCHC-ZnF2; experiment: NMR titration (15N HSQC CSP); 10 uM ZnCl2; NMR: 10 mM Tris-HCl pH 7.4, 100 mM NaCl, 0.5 mM TCEP, 10 uM ZnCl2, 25 C, 50 uM protein; BLI: streptavidin sensors, 1-8 uM protein, buffer not in material

UGAGGUAGUAGUUUGUGCUGUU (ssRNA) [Let-7i miRNA] was tested, and the Kd (hTUT4 CCHC-ZnF2 [1]) was ~4 µM and the binding result (hTUT4 CCHC-ZnF2-3 [2]) was “binds”.

UUUU (ssRNA) [UUUU RNA]: no binding (hTUT4 CCHC-ZnF2 [3]).

In the case of UUUGGA (ssRNA) [UUUGGA RNA (short RNA with SIA sequence)], the Kd (hTUT4 CCHC-ZnF2 [1]) is reported as ~4 µM and the binding result (hTUT4 CCHC-ZnF2-3 [4]) is reported as “binds”.

In the case of CGGA (ssRNA) [CGGA RNA], the Kd (hTUT4 CCHC-ZnF2 [5]) is reported as 3.7 ± 0.4 µM.
